# Results as given in the DeepSol protein solubility set.
# Test: soluble on expression in E. coli; label from the status in PepcDB or PDB records
row,Sequence,soluble on expression in E. coli
1,MSLEAPVYKEIFGAVKIYELQKVIKMDTETEDVPMFTVQNLPREDIYKTIGEMAIIVPMKNEKLHLVDGVLKAIPHKSPIIIVSNSKRKGPNRFKQEVDLVKHFCNLTHSKVIMIHQRDPGLAEAFRETGYEDILDEKGLVRSGKGEGMLIGIMLAKAIGAKYVGFVDADNYIPGAVNEYVKDYAAGFLMSESEYAMVRLHWRHKPKVSRGTLYFKKWGRVSEITNRYLNQLISEKTAFETTIMVTGNAGEHAMTMKLAEILPFSTGYSIEPYEIVYLLERFGSWENVEEFQDVFDQGIEIFQIETLNPHFHEDKGQEHVKEMVLLSLTTIYHSKLASERLKRQILEDLRMHGIIKEDEEPPKPRVMRPIKDIDIKKWMKTLESNQETLLRFDLEGHHHHHH,soluble
2,MEAVHCFRCYKFPSKQIEFYLTNCMHMFCIECERLCHPPEEEPLKCIQCSKTPIRIVKMGPELPMTIKSMFTPISEEINQYTRDLTRVLTFQHRQRASLSTFLERKVAAFDRLRDAYSEEKTKKEHYKKQLEEAYHLLKSKEHEISKLKKQLAEQAPPPQTPPRSNSLKVASSRSLETPSMMRVFSDSMYETPVQIQRRFTKAQAKAEAEAEAPAKSPGSKAQTTKCTSNYQSHPPASFETPIHHPPKTSMGFTTPANPPHMFPYLKKHEAQREKHKEHRNSQ,not soluble
3,MSDSCDGVECGPGKACRMLGGRPRCECAPDCSGLPARLQVCGSDGATYRDECELRAARCRGHPDLSVMYRGRCRK,soluble
4,AQLQNLVLKDREATPNDHTFVPRDIRDNVGEVVESTGVPIGESRFTISLRKTSNGRYKSTLKLVVPVVQSQTVNGIVTPVVVRTSYVTVDFDYDARSTTKERNNFVGMIADALKADKMLVHDTIVNLQGVY,soluble
5,SLQSYQSVDSIRAAALATVGPDAEAEATLDPGLRMPGCPIALQAKPTGTNTVEVACPQPAGWRLFVPLKVRRNQDVLVLRRGISAGETISLADISIEKRDAARIVGAVLADPVAAVGKTARRILPAGSLLSANDLVSQRLVRRGDTVPLVSRNGGLEVRMSGRALSDAGENERVSVENSSSRRVVQGIVEASGTVVVSR,soluble
6,MNVTSGMDQILAQLKATSDLAAGGSKPSATVSTVSQADFGQLLKSAVDQVNTVQQTASQLSREFVGGNQDVELHDVMISLQKANVSFQSMIQVRNRLVTAYQEIMNMQV,not soluble
7,MSKLEFLAFYDELTGLPNKNSLIRWLNLKVSQMDCIDTYLIFLEVRDLEKLNVTYGYDLVDELIIHISKRIKDIAGEGNKAFKIGFDRFAIICKSENISDFIERMLSQLLLPYNVNGNLIRVNFNIGAAQIENSNEAAANLMRRCDLALIKAKEEGLNEYVIFKPSIEIQTLEHHHHHH,soluble
8,MAHHHHHHMMSVANAAYLPLIGSCLTAGEQTALQCSLPLLSQRYRGTPMQLWGKVTGIKANYWVAQAFPNGEFAPAVSFYSIDGGSTWTMLSELTEEQAALCEALRGPYQGVPSYEYMMRQDLPAETDEAAVTMPTPDDILKKAEDDIAAARAASDANSDADESEGDDEEQDDEEEEDEEDAGAVLAPRKRMAKFRILSVTEAMRLAHFVQLHDADCRLTVRGMYVLQDGAAVGARNSTFGGQPLHNAKKPSCYVKMARAGTEERNRILYGLTYNPHTDYLMPITDDAPAGVWSVKYNATANVVSVRNLFYEGSLFWYRPGTLECGQVYCGPGERNFDLCFML,soluble
9,MLKGHLHSVESLGTVDGPGLRYILFTQGCLLRCLYCHNPDTWKISEPSREVTVDEMVNEILPYKPYFDASGGGVTVSGGEPLLQMPFLEKLFAELKENGVHTCLDTSAGCANDTKAFQRHFEELQKHTDLILLDIKHIDNDKHIRLTGKPNTHILNFARKLSDMKQPVWIRHVLVPGYSDDKDDLIKLGEFINSLDNVEKFEILPYHQLGVHKWKTLGIAYELEDVEAPDDEAVKAAYRYVNFKGKIPVEL,not soluble
10,MRYTGYMMEVRQLRHFVTVAEWESFTLAAQQLHIAQPALSISIKKFEQQLGVTLFKRDERKVALTHEGEVLLEHAKRILQQVNDAQLAVDELKGVVKGEVRLGAPSMMGSYFFPQIIMAFKSHFPNLKMTVIEAGTQSIRRMLLSGELDIGVILNHDLPDDLAADPLLSSQMVAVVGKNHELAERRHLTFAEFFEHELVMFKPGYFHRDFIDKVCREHKFTADFSFETNLLPMILSIVKHEYAITALLELVTSNEPEVKAIPFEPPVWLDLALAWRKEGYLSNADRTFIEFVKKYV,not soluble
11,QYSLLHVSDLFFLAQQAMPGVQVLDALTGKPVEGASVDASMRYSIDRSVHTLSPTDRYGRIDLPKSYNRFFPYTDGDRSYPVVSAYTYKQDQVDLSKKNERKYIVSTDRAIYRPGQKVHFFGQCDRIGYAVEDARAIGGSEVEVVLEDANSKEIGRLLCQADEMGRFSGSFDLPTGILNGLFGLRVGGDTYPFSVEEYKRPTFEVGLRSPDAAYAMGDTLRIRGEAKTFTGIGMRGATVNYRLSLTPYTRRWWGRPVADRVVQTGEAVVDES,not soluble
12,ELVMTQTPSSVSEPVGGTVTIKCQASQSISSWLSWYQQKPGQPPKLLIYDASNLASGVPSRFMGSGSGTEYTLTISGVQREDAATYYCLGGYPAASYRTAFGGGTELEIIRTVAAPSVFIFPPSDEQLKSGTASVVCLLNNFYPREAKVQWKVDNALQSGNSQESVTEQDSKDSTYSLSSTLTLSKADYEKHKVYACEVTHQGLSSPVTKSFNRGEC,soluble
13,MGSDKIHHHHHHMHYPPMIATTLPDGPEQTPLTAEIVLRYHLCWKHRDLDGVMALYHPDIQYHDFFQNRVLGHQELRDYVRACLPHEAGEDIVHSDRIRVDGSTAFIQYQVTVQGGDGLVAFQSSEAITVRDGLIWRVNEYATLVRQNGTGHANSGPRPATSRLGLSPRQLSTMAQDLEHYFRRQRPYLDPELDLQQVADASGYSRNQISYLLNQVLGQSFYRYVNQARLQHLMASLGDDSVEATIDELAFSAGFNSLSAFYKCFREHTGFTPKAYLKQISLRART,not soluble
14,MALLGPKEQEIVRERLANLTRDVEMVLFTDSSTLIAPGKEPCLYCKETKQLLEELSALSDKLHLVVYDLATPEGREKAGAYKVEAAPTLILREKGSEAINLRYRGIPAGYEFASLLEDIEMLGRDGHGLPENVVQELNDLPEEVVLQVFVTPTCPYCPQAVRTAHRLAYASPKVWGEMIEANEFPALSDRYRIHGVPDTIINHGKERVLGAQPLSQFLQAIRKAVGVRA,soluble
15,MGSDKIHHHHHHLIYIYYPELRLFNGDEITQKFVKGEVVEAHEVLRLKHSIATYRSRLCDISWFMRCLNEPIARQANQEDSCTGRFWEGRFKSQALLDEAAVLACMAYVDLNPIRAKMASTPEQSDHTSIQLRIRAALKGEQPNNLLPFIGNERQFQPKGITFALKDYLELVDDTGRIIRNDKRGSVSANSAKLLTRLNISQENWLKLTTEFGKLFHGPVGTLQELTSYCEHLEKRRRHFASCCQHLKAG,not soluble
16,MRNFDLSPLYRSAIGFDRLFNHLENNQSQSNGGYPPYNVELVDENHYRIAIAVAGFAESELEITAQDNLLVVKGAHADEQKERTYLYQGIAERNFERKFQLAENIHVRGANLVNGLLYIDLERVIPEAKKPRRIEIN,not soluble
17,TRIPGVRLMRAEQAYPRSPVFYEPRICILAQGQKIGFLGGETYRYDAERYLVMSVPLPFECETHASAAEPLLGVSVDVDIGTLKELLLQMEEAPGSDDDNELAPSAPMASVPLDAGMADAVMRLLGCLQSPLDSHILGPQLVREIIFRALRSEQGNAL,not soluble
18,MGSDKIHHHHHHMQPELSEFLRQHRITEVEAIIPDMAGIARGKIIPRNKFESGESMRLPQAVMVQTVTGDYPEDGTLTGVTDPDMVCVPDPSTICLVPWAVDPTAQVIHDCVHFDGSPVEISPRYVLRRVLDLYKAKGWQPVVAPELEFYLVDMNADPDLPLRPPIGRTGRAETGRQSYSIEAVNEFDPLFEDIYEYCEMQGLDIETLIHEVGAAQMEINFVHGDALSLADQVFLFKRTVREAALRHNMYATFMAKPMEGEPGSAMHIHQSLADVHTGRNLFAEEGGVVSPMFHSYLAGLQKYTPALMPIFAPYINSYRRLSRFMAAPINVQWGYDNRTVGFRIPQSTPVARRIENRIPGVDCNPYLAFAATLAAGYLGLTQQLAPTEPIASDGYDLPYQLPRNLEEGISLMAACTPLAGILGDKFVKAYLALKETEYEAFFRVISSWERRHLLLHV,not soluble
19,MTKRGLGKGLDALLATSSLAREKQQVASLSQSMSAEGELADLSISNLKPGIYQPRKDLSPEALEELAASIQSQGIIQPIVVRHLPTGGYEIIAGERRWRAAKQAGLKQVPCLIKQVEDRGAIAMALIENIQREDLNAMEEAQALERLQNEFNLTHQQVAEVIGKSRTTVTNLLRLNQLSDDVKRLLETKQLEMGHARALLMLEGEQQVEIAQQVAKKQLTVRQTEQLVKKCLSDPSDAKNVSEDLEIQQLSQNLSEKLAAKVSIVRTPNGKSKVTISLDEPHKLELLIAKLQN,not soluble
20,VAVGARCVCGRPLAVVTRPLLPGGVPFPTTCYLTGPEAVKAISHIEAEGKMKEYNDMLAENEDLRAGYERAHELYLAFRHEIALALEDSEEHIEGTSAGGMPVRVKCLHALLAQTLVMGEGANPIGDMALSAIKHEFDPAVCRCAVENEE,not soluble
21,MGSDKIHHHHHHMEFSLERDEARLVEIASIQETYGTFLIEHLDEKTAIISGSWDPLRRCAFVNYVGLIVGEAEDLSAFQEGLPAGKFYIRYRDIDGDKPMSEAAIGDMLKARGRVSFRDPDYVVRVVHHGIFYVTKVVYERDKKQFIERKAPRRPFFSPVSMDPKYARFLVNTAHVRENQLLIDPFCGTGGILIEAALMGIRVIGNDVALSMAAGARTNLKHFHVEDFHIYNMDVSDLPVRDVDGIATDMPYGRNSYASEDLEVLYERSFRKFHEMLKPHGYASFVVSDPDLAELARPFFNIVHDVPVYQHRSLTRHFITAMRKD,not soluble
22,MGSDKIHHHHHHMSLKTSDVKFKDRIQTQIHDPIMRKAVANAQERIGANRQKMVDELGHWEAWRDHAAQIREHVLNNLDAYLYQLSEKVTANGGQVYFAKTKEDATRYILQVAQANHAKKVVKAKSMVTEEIGMNHVLQQAGIEVIETDLGEYILQLDQDPPSHVVVPAIHKDRYQIRKVLHEKLGYDGPETPEAMTLFIRKKIREDFLSAEVGVTGCNFAVAETGSVCLVTNEGNARMCTTLPKTHIAVMGMERIAPTFEEVDVLITMLARSAVGARLTGYNTWLTGPREAGHVDGPQEFHLVIVDNGRSQILGSAFRDILRCIRCGACINTCPAYRHIGGHGYGSIYPGPIGAVISPLLGGYQDFKELPYACSLCTACDTVCPVHIPLSSLILKHRRVMAESGITPKAEQRFTKLFSYVNSHPMLWKVGMIAGAHAAGWFIKNGKTRIEMGAIGEWTEARDLPDADGESFRSWFKKHQARGKK,not soluble
23,NKDFEWSTTGTFSLNSNKLISLSGSIFKSDYDYFNTGTVEYSGQVADSHRVQVGESIGNFYGFKVVDVDSEGRWIYEDRNGELVNYKDFTHAPEDKHVIGNGLPKWYAGWNNTLRYKNFDLNVTMRGAFGFQIINGGRMNYENVKNSRFENRLKSVNDLVFGKHTLSPEVEPEFNSYYVEDGDYWKIDNITLGYSFGQVGKYIKSLRIYGSVLNALTITGYKGIDPEVSTDGLTPGYDTRDRYPSVRSFTFGVNVKF,not soluble
